# Test results: patent US20240270821A1, “GIP/GLP1/GCG TRI-RECEPTOR AGONISTS AND USES THEREOF” (priority 2023, published 2024)
# Positions count from the first letter of the chain named.
# T1: human GIP receptor (human) (UniProt P48546)
# T1 sequence (looked up): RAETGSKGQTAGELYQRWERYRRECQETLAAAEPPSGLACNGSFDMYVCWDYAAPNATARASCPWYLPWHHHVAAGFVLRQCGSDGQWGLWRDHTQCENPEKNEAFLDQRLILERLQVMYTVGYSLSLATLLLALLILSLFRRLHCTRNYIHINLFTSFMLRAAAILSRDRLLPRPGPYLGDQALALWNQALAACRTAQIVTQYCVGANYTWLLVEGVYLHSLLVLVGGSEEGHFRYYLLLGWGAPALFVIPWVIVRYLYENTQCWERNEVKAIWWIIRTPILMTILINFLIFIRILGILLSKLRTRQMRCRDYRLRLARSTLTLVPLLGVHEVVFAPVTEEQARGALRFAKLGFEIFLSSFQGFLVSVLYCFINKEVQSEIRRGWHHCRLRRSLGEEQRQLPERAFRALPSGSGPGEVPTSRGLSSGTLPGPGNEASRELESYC
# B1: Example 598 (peptide)
# chain: YXQGTXTSDXXIXLDXKAQXXFIEXLTEGGPSSGEPPPEGTEEE
# modifications: non-natural residues; (γGlu)2-C18 diacid on Lys; C-terminal amide; synthetic construct; SITE 2: note = 2-Aminoisobutyric Acid; SITE 6: note = alpha-methyl-2-fluoro-L-phenylalanine; SITE 10: note = 3-(4-Pyridyl)-L-alanine; SITE 11: note = alpha-methyl-L-serine; SITE 13: note = alpha-methyl-leucine; SITE 16: note = L-ornithine; SITE 17: note = Lysine is chemically mo
# B2: Example 505 (peptide)
# chain: YXQGTXTSDXSIXLDXKAQXXFIEXLIEGGPSSGEPPPEGT
# modifications: synthetic construct; SITE 2: note = 2-Aminoisobutyric Acid; SITE 6: note = alpha-methyl-2-fluoro-L-phenylalanine; SITE 10: note = 3-(4-Pyridyl)-L-alanine; SITE 13: note = alpha-methyl-leucine; SITE 16: note = L-ornithine; SITE 17: note = Lysine is chemically modified through conjugation of the epsil
# B3: Example 525 (peptide)
# chain: B2 chain with S11X, X21N, I27Q
# modifications: synthetic construct; SITE 2: note = 2-Aminoisobutyric Acid; SITE 6: note = alpha-methyl-2-fluoro-L-phenylalanine; SITE 10: note = 3-(4-Pyridyl)-L-alanine; SITE 11: note = alpha-methyl-L-serine; SITE 13: note = alpha-methyl-leucine; SITE 16: note = L-ornithine; SITE 17: note = Lysine is chemically mo
# B4: Example 503 (peptide)
# chain: YXQGTXTSDXXIXLDXKAQXXFIEXLQEGGPSSGEPPPEGTE
# modifications: synthetic construct; SITE 2: note = 2-Aminoisobutyric Acid; SITE 6: note = alpha-methyl-2-fluoro-L-phenylalanine; SITE 10: note = 3-(4-Pyridyl)-L-alanine; SITE 11: note = alpha-methyl-L-serine; SITE 13: note = alpha-methyl-leucine; SITE 16: note = L-ornithine; SITE 17: note = Lysine is chemically mo
# B5: Example 546 (peptide)
# chain: B4 chain with X13L, T41A
# modifications: synthetic construct; SITE 2: note = 2-Aminoisobutyric Acid; SITE 6: note = alpha-methyl-2-fluoro-L-phenylalanine; SITE 10: note = 3-(4-Pyridyl)-L-alanine; SITE 11: note = alpha-methyl-L-serine; SITE 16: note = L-ornithine; SITE 17: note = Lysine is chemically modified through conjugation of the epsi
# B6: Example 522 (peptide)
# chain: B4 chain with X25Y, Q27I, E39S
# modifications: not fully specified; printed without C-terminal amide; synthetic construct; SITE 2: note = 2-Aminoisobutyric Acid; SITE 6: note = alpha-methyl-2-fluoro-L-phenylalanine; SITE 10: note = 3-(4-Pyridyl)-L-alanine; SITE 11: note = alpha-methyl-L-serine; SITE 13: note = alpha-methyl-leucine; SITE 16: note = L-ornithine; SITE 17: note = Lysine is chemically mo
# B7: Example 531 (peptide)
# chain: B4 chain with X13L, X25Y, Q27I, E39S
# modifications: synthetic construct; SITE 2: note = 2-Aminoisobutyric Acid; SITE 6: note = alpha-methyl-2-fluoro-L-phenylalanine; SITE 10: note = 3-(4-Pyridyl)-L-alanine; SITE 11: note = alpha-methyl-L-serine; SITE 16: note = L-ornithine; SITE 17: note = Lysine is chemically modified through conjugation of the epsi
# B8: Example 542 (peptide)
# chain: B4 chain with Q27T, E39S
# modifications: synthetic construct; SITE 2: note = 2-Aminoisobutyric Acid; SITE 6: note = alpha-methyl-2-fluoro-L-phenylalanine; SITE 10: note = 3-(4-Pyridyl)-L-alanine; SITE 11: note = alpha-methyl-L-serine; SITE 13: note = alpha-methyl-leucine; SITE 16: note = L-ornithine; SITE 17: note = Lysine is chemically mo
# B9: Example 544 (peptide)
# chain: B4 chain with Q27A, E39S
# modifications: synthetic construct; SITE 2: note = 2-Aminoisobutyric Acid; SITE 6: note = alpha-methyl-2-fluoro-L-phenylalanine; SITE 10: note = 3-(4-Pyridyl)-L-alanine; SITE 11: note = alpha-methyl-L-serine; SITE 13: note = alpha-methyl-leucine; SITE 16: note = L-ornithine; SITE 17: note = Lysine is chemically mo
# B10: Example 526 (peptide)
# chain: B4 chain with X21N
# modifications: synthetic construct; SITE 2: note = 2-Aminoisobutyric Acid; SITE 6: note = alpha-methyl-2-fluoro-L-phenylalanine; SITE 10: note = 3-(4-Pyridyl)-L-alanine; SITE 11: note = alpha-methyl-L-serine; SITE 13: note = alpha-methyl-leucine; SITE 16: note = L-ornithine; SITE 17: note = Lysine is chemically mo
# B11: Example 530 (peptide)
# chain: B4 chain with X25Y, Q27S, E39S
# modifications: synthetic construct; SITE 2: note = 2-Aminoisobutyric Acid; SITE 6: note = alpha-methyl-2-fluoro-L-phenylalanine; SITE 10: note = 3-(4-Pyridyl)-L-alanine; SITE 11: note = alpha-methyl-L-serine; SITE 13: note = alpha-methyl-leucine; SITE 16: note = L-ornithine; SITE 17: note = Lysine is chemically mo
# B12: Example 532 (peptide)
# chain: B4 chain with X25Y, Q27L, E39S
# modifications: synthetic construct; SITE 2: note = 2-Aminoisobutyric Acid; SITE 6: note = alpha-methyl-2-fluoro-L-phenylalanine; SITE 10: note = 3-(4-Pyridyl)-L-alanine; SITE 11: note = alpha-methyl-L-serine; SITE 13: note = alpha-methyl-leucine; SITE 16: note = L-ornithine; SITE 17: note = Lysine is chemically mo
# B13: Example 504 (peptide)
# chain: B4 chain with E39S
# modifications: synthetic construct; SITE 2: note = 2-Aminoisobutyric Acid; SITE 6: note = alpha-methyl-2-fluoro-L-phenylalanine; SITE 10: note = 3-(4-Pyridyl)-L-alanine; SITE 11: note = alpha-methyl-L-serine; SITE 13: note = alpha-methyl-leucine; SITE 16: note = L-ornithine; SITE 17: note = Lysine is chemically mo
# B14: Example 528 (peptide)
# chain: B4 chain with X21Q
# modifications: synthetic construct; SITE 2: note = 2-Aminoisobutyric Acid; SITE 6: note = alpha-methyl-2-fluoro-L-phenylalanine; SITE 10: note = 3-(4-Pyridyl)-L-alanine; SITE 11: note = alpha-methyl-L-serine; SITE 13: note = alpha-methyl-leucine; SITE 16: note = L-ornithine; SITE 17: note = Lysine is chemically mo
# Biological target: hGLP-1R (Homo sapiens, UniProt P43220)
# Assay: cell-based or functional assay
# Sequence of hGLP-1R (P43220 24-463): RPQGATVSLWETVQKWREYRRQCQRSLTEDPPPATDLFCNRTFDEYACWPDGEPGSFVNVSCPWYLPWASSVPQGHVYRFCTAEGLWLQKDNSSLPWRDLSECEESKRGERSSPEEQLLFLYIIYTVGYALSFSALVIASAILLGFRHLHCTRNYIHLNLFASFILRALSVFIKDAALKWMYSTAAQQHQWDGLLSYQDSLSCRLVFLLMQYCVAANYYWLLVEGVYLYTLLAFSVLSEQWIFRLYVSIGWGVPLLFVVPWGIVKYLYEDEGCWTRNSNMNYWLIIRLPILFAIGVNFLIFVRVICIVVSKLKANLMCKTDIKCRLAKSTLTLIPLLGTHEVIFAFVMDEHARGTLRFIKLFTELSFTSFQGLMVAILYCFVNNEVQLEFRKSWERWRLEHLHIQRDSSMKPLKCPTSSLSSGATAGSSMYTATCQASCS
Relative cAMP EC50,cAMP Rel EC50 (in the presence of 1% HSA),cAMP Rel EC50 (1% HSA),Binder
0.886 nM,47.3 nM,,B1
0.205 nM,,39 nM,B2
0.426 nM,,20.2 nM,B3
0.525 nM,,26.1 nM,B4
0.517 nM,,34.4 nM,B5
0.51 nM,,35.5 nM,B6
0.356 nM,,37.8 nM,B7
0.388 nM,,29.6 nM,B8
0.623 nM,,43 nM,B9
0.421 nM,,22.9 nM,B10
4.91 nM,,437 nM,B11
0.577 nM,,47.3 nM,B12
0.253 nM,,16.5 nM,B13
0.434 nM,,24.3 nM,B14

# Biological target: human glucagon receptor (human) (UniProt P47871)
# Assay: cell-based or functional assay
# Sequence of human glucagon receptor (human) (P47871 26-477): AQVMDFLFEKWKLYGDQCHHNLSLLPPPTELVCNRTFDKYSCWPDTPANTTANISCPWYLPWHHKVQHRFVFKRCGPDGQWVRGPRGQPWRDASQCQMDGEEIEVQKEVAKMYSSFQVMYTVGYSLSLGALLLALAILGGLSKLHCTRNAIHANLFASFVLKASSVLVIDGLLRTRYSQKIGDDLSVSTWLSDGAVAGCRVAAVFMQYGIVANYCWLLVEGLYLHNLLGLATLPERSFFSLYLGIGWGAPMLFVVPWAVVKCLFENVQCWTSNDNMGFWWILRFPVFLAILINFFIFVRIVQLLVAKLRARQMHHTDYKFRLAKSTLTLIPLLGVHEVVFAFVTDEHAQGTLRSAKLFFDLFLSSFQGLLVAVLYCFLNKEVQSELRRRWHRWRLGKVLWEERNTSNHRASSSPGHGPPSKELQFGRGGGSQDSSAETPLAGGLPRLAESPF
Relative cAMP EC50,cAMP Rel EC50 (in the presence of 1% HSA),cAMP Rel EC50 (1% HSA),Binder
8.79 nM,457 nM,,B1
0.445 nM,,92 nM,B2
10 nM,,460 nM,B3
3.98 nM,,233 nM,B4
3.67 nM,,225 nM,B5
6.32 nM,,441 nM,B6
3.79 nM,,465 nM,B7
5.03 nM,,256 nM,B8
2.71 nM,,171 nM,B9
8.62 nM,,530 nM,B10
17.1 nM,,1280 nM,B11
1.37 nM,,157 nM,B12
2.83 nM,,162 nM,B13
7 nM,,474 nM,B14

# Biological target: T1, human GIP receptor (human)
# Assay: cell-based or functional assay
Relative cAMP EC50,cAMP Rel EC50 (in the presence of 1% HSA),cAMP Rel EC50 (1% HSA),Binder
0.0927 nM,3.49 nM,,B1
0.00707 nM,,2.1 nM,B2
0.0351 nM,,2.07 nM,B3
0.0518 nM,,2.02 nM,B4
0.25 nM,,11.9 nM,B5
0.033 nM,,1.95 nM,B6
0.0694 nM,,5.2 nM,B7
0.0336 nM,,1.69 nM,B8
0.041 nM,,2.4 nM,B9
0.0364 nM,,2.12 nM,B10
0.874 nM,,63.7 nM,B11
0.0159 nM,,1.49 nM,B12
0.0364 nM,,1.8 nM,B13
0.0333 nM,,1.55 nM,B14
